The source of these data is patent publication US20140274782A1, “AFFINITY REAGENTS AND METHODS FOR DETECTION, PURIFICATION, AND PROTEOMIC ANALYSIS OF METHYLATED PROTEINS” (The Board of Trustees of the Leland Stanford Junior …, priority 2013, published 2014).

The target of the assay is RPL14-60S ribosomal protein L14 (human) (UniProt P50914). In words: ProtoArray, GST-treated control array.

Sequence of 3× Flag-3×MBT (designed binder; other documents disagree on this pair) (Q9Y468 258-598): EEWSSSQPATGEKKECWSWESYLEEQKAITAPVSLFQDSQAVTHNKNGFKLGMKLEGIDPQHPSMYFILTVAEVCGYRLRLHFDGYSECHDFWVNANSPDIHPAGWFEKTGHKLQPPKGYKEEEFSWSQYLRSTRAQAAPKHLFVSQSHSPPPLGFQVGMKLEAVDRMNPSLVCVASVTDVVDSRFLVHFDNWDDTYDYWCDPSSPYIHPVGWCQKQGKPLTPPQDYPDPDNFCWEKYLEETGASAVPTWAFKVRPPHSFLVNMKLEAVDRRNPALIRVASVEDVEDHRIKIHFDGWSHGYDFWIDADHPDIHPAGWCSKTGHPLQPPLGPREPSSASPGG

“3× Flag-3×MBT (designed binder; other documents disagree on this pair)” displayed a GST Average SNR of 0.728.
